Data from CN113683686A (INST PASTEUR SHANGHAI CAS, dated 2021).

Key:
[1] = biological target: 重组的SARS-CoV-2 RBD蛋白 (S蛋白320-550位残基, 组氨酸标签) (SARS-CoV-2, UniProt P0DTC2 320-550); assay: BLI (Octet RED96), His-tagged RBD on Ni-NTA sensor, antibody in solution
[2] = biological target: SARS-CoV-2 S蛋白 (on MLV-based SARS-CoV-2 pseudovirus) (SARS-CoV-2, UniProt P0DTC2 14-1273); assay: cell-based or functional assay

Binder	Kd [1] [nM]	半数抑制浓度(IC50), SARS-CoV-2假病毒中和试验 (VeroE6, luciferase) [2] [µg/mL]
单抗2H2 (anti-SARS-CoV-2 RBD mouse monoclonal antibody 2H2) (antibody, V domains shown) VH: QVQLKQSGPSLVQPSQSLSITCTVSGFSLTSYGVHWVRQSPGKGLEWLGVMWRGGNTDYNAAFMSRLSITKDNSKSQVFFKMNSLQTDDTAIYYCAKNGGAHAMDFWGQGTSVTVSS VL: NIVLTQSPASLAVSLGQRATISCRASESVDSYGNSFLHWYQQKPGQPPKLLIYLASNLESGVPARFSGSGSRTDFTLTIDPVEADDAATYYCQQNNEDPFTFGSGTKLEIK	7.5	0.005
单抗3C1 (anti-SARS-CoV-2 RBD mouse monoclonal antibody 3C1) (antibody, V domains shown) VH: EVQLQESGPSLVKPSQTLSLTCSVTGDSITNGYWNWIRKFPGNKLEYMGYISYSGSTYYSPSLKSRISITRDTSKNQHYLQLNSVTSEDTATYYCASDYHGSKYYFDYWGQGTTLTVSS VL: DIVMTQSHKFMSTSVGHRVSITCKASQDVGNDVAWYQQKPGQSPKLLIYWASTRHTGVPDRFTGSGSGTDFTLTISNVQSEDLADYFCQQYNRYPYTFGGGTKLEIK	13	1.91
